Tested on: Escherichia coli TOP10
Experiment: shrunken log2 fold change of peptide-encoding DNA abundance (4.5 h post-induction vs induction); higher = less antimicrobial activity (less host growth inhibition)
Details: time post-induction: 4.5 h; library: site-saturation at positions 5, 18, 19, 20
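Further: peptides expressed intracellularly from a pBAD plasmid library in pooled LB shake-flask culture, induced with 0.3% L-arabinose, DNA abundance read by NGS, three biological replicates, DESeq2 with apeglm shrinkage.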

Row | Sequence | shrunken log2 fold change
1 | RRIRIRPPRLPRPRPRPQVCPRP | 0.0108
2 | RRIRIRPPRLPRPRPRPQVDPRP | 0.0508
3 | RRIRIRPPRLPRPRPRPQVTPRP | -0.4
4 | RRIRIRPPRLPRPRPRPQWSPRP | -0.618
5 | RRIRIRPPRLPRPRPRPQYDPRP | -0.043
6 | RRIRIRPPRLPRPRPRPRDEPRP | 0.27
7 | RRIRIRPPRLPRPRPRPREGPRP | 0.229
8 | RRIRIRPPRLPRPRPRPRERPRP | 0.688
9 | RRIRIRPPRLPRPRPRPRFHPRP | -0.42
10 | RRIRIRPPRLPRPRPRPRGIPRP | -0.0459
11 | RRIRIRPPRLPRPRPRPRGNPRP | -0.0419
12 | RRIRIRPPRLPRPRPRPRIIPRP | -0.199
13 | RRIRIRPPRLPRPRPRPRIMPRP | -0.537
14 | RRIRIRPPRLPRPRPRPRLVPRP | 0.22
15 | RRIRIRPPRLPRPRPRPRMMPRP | -0.293
16 | RRIRIRPPRLPRPRPRPRNAPRP | 0.0687
17 | RRIRIRPPRLPRPRPRPRPTPRP | 0.152
18 | RRIRIRPPRLPRPRPRPRSAPRP | 0.0737
19 | RRIRIRPPRLPRPRPRPRSIPRP | 0.0721
20 | RRIRIRPPRLPRPRPRPRSKPRP | -0.251
21 | RRIRIRPPRLPRPRPRPRSSPRP | 0.152
22 | RRIRIRPPRLPRPRPRPRTHPRP | -0.372
23 | RRIRIRPPRLPRPRPRPRTTPRP | -0.25
24 | RRIRIRPPRLPRPRPRPRVEPRP | -0.0648
25 | RRIRIRPPRLPRPRPRPRVMPRP | 0.0377

Row | Sequence | shrunken log2 fold change
26 | RRIRIRPPRLPRPRPRPRWPPRP | 0.379
27 | RRIRIRPPRLPRPRPRPRWRPRP | 0.267
28 | RRIRIRPPRLPRPRPRPSATPRP | -0.17
29 | RRIRIRPPRLPRPRPRPSAVPRP | -0.306
30 | RRIRIRPPRLPRPRPRPSCCPRP | -0.471
31 | RRIRIRPPRLPRPRPRPSCHPRP | -0.243
32 | RRIRIRPPRLPRPRPRPSDAPRP | -0.0664
33 | RRIRIRPPRLPRPRPRPSESPRP | -0.159
34 | RRIRIRPPRLPRPRPRPSETPRP | -0.297
35 | RRIRIRPPRLPRPRPRPSGFPRP | -0.175
36 | RRIRIRPPRLPRPRPRPSHPPRP | -0.245
37 | RRIRIRPPRLPRPRPRPSHQPRP | 0.0866
38 | RRIRIRPPRLPRPRPRPSITPRP | 0.141
39 | RRIRIRPPRLPRPRPRPSKKPRP | -0.229
40 | RRIRIRPPRLPRPRPRPSLAPRP | 0.0113
41 | RRIRIRPPRLPRPRPRPSLIPRP | -0.604
42 | RRIRIRPPRLPRPRPRPSMYPRP | -1.53
43 | RRIRIRPPRLPRPRPRPSNDPRP | -0.779
44 | RRIRIRPPRLPRPRPRPSPFPRP | -0.81
45 | RRIRIRPPRLPRPRPRPSQIPRP | -0.142
46 | RRIRIRPPRLPRPRPRPSRTPRP | -0.455
47 | RRIRIRPPRLPRPRPRPSSDPRP | 0.0499
48 | RRIRIRPPRLPRPRPRPSTWPRP | -0.481
49 | RRIRIRPPRLPRPRPRPSVEPRP | -0.947
50 | RRIRIRPPRLPRPRPRPSWTPRP | -0.237

Row | Sequence | shrunken log2 fold change
51 | RRIRIRPPRLPRPRPRPSYRPRP | -0.0544
52 | RRIRIRPPRLPRPRPRPTAAPRP | 0.116
53 | RRIRIRPPRLPRPRPRPTCTPRP | -0.807
54 | RRIRIRPPRLPRPRPRPTEWPRP | 0.133
55 | RRIRIRPPRLPRPRPRPTFLPRP | -0.679
56 | RRIRIRPPRLPRPRPRPTFNPRP | -0.595
57 | RRIRIRPPRLPRPRPRPTHNPRP | -0.145
58 | RRIRIRPPRLPRPRPRPTIFPRP | -0.398
59 | RRIRIRPPRLPRPRPRPTIHPRP | -0.592
60 | RRIRIRPPRLPRPRPRPTKVPRP | -0.257
61 | RRIRIRPPRLPRPRPRPTRNPRP | -0.268
62 | RRIRIRPPRLPRPRPRPTSYPRP | -0.261
63 | RRIRIRPPRLPRPRPRPTYCPRP | -0.214
64 | RRIRIRPPRLPRPRPRPVAWPRP | -0.0525
65 | RRIRIRPPRLPRPRPRPVCAPRP | -0.0399
66 | RRIRIRPPRLPRPRPRPVECPRP | 0.00902
67 | RRIRIRPPRLPRPRPRPVEFPRP | -0.0453
68 | RRIRIRPPRLPRPRPRPVELPRP | -0.0129
69 | RRIRIRPPRLPRPRPRPVFLPRP | -0.51
70 | RRIRIRPPRLPRPRPRPVHAPRP | 0.0769
71 | RRIRIRPPRLPRPRPRPVHCPRP | -0.335
72 | RRIRIRPPRLPRPRPRPVIEPRP | -0.121
73 | RRIRIRPPRLPRPRPRPVKFPRP | -0.0946
74 | RRIRIRPPRLPRPRPRPVMKPRP | 0.012
75 | RRIRIRPPRLPRPRPRPVMSPRP | -0.0169

Row | Sequence | shrunken log2 fold change
76 | RRIRIRPPRLPRPRPRPVMYPRP | -0.052
77 | RRIRIRPPRLPRPRPRPVNIPRP | -0.17
78 | RRIRIRPPRLPRPRPRPVNVPRP | -0.404
79 | RRIRIRPPRLPRPRPRPVPEPRP | -0.138
80 | RRIRIRPPRLPRPRPRPVPLPRP | -0.442
81 | RRIRIRPPRLPRPRPRPVPQPRP | 0.224
82 | RRIRIRPPRLPRPRPRPVQPPRP | 0.204
83 | RRIRIRPPRLPRPRPRPVSNPRP | -0.0661
84 | RRIRIRPPRLPRPRPRPVTFPRP | -0.00574
85 | RRIRIRPPRLPRPRPRPVTHPRP | -0.256
86 | RRIRIRPPRLPRPRPRPVVVPRP | -0.0561
87 | RRIRIRPPRLPRPRPRPVWHPRP | -0.413
88 | RRIRIRPPRLPRPRPRPVYEPRP | -0.12
89 | RRIRIRPPRLPRPRPRPWAKPRP | -0.235
90 | RRIRIRPPRLPRPRPRPWARPRP | 0.0419
91 | RRIRIRPPRLPRPRPRPWEDPRP | -0.202
92 | RRIRIRPPRLPRPRPRPWEFPRP | -0.000856
93 | RRIRIRPPRLPRPRPRPWFHPRP | -0.768
94 | RRIRIRPPRLPRPRPRPWGAPRP | 0.0191
95 | RRIRIRPPRLPRPRPRPWGDPRP | -0.38
96 | RRIRIRPPRLPRPRPRPWHSPRP | -0.383
97 | RRIRIRPPRLPRPRPRPWIDPRP | 0.0218
98 | RRIRIRPPRLPRPRPRPWIKPRP | -0.0222
99 | RRIRIRPPRLPRPRPRPWKFPRP | -0.158
100 | RRIRIRPPRLPRPRPRPWLGPRP | 0.0945

Row | Sequence | shrunken log2 fold change
101 | RRIRIRPPRLPRPRPRPWLYPRP | -0.0424
102 | RRIRIRPPRLPRPRPRPWMAPRP | -0.547
103 | RRIRIRPPRLPRPRPRPWNHPRP | 0.0112
104 | RRIRIRPPRLPRPRPRPWQYPRP | -0.0758
105 | RRIRIRPPRLPRPRPRPWSKPRP | -0.0876
106 | RRIRIRPPRLPRPRPRPWSQPRP | -0.738
107 | RRIRIRPPRLPRPRPRPWTSPRP | -0.171
108 | RRIRIRPPRLPRPRPRPWVCPRP | 0.0551
109 | RRIRIRPPRLPRPRPRPWVDPRP | 0.0772
110 | RRIRIRPPRLPRPRPRPWVGPRP | -0.248
111 | RRIRIRPPRLPRPRPRPWVYPRP | -0.341
112 | RRIRIRPPRLPRPRPRPWWNPRP | -0.0623
113 | RRIRIRPPRLPRPRPRPWWWPRP | -0.115
114 | RRIRIRPPRLPRPRPRPWWYPRP | -0.179
115 | RRIRIRPPRLPRPRPRPYARPRP | -1.22
116 | RRIRIRPPRLPRPRPRPYCLPRP | -0.259
117 | RRIRIRPPRLPRPRPRPYCSPRP | -0.0144
118 | RRIRIRPPRLPRPRPRPYDHPRP | -0.285
119 | RRIRIRPPRLPRPRPRPYDMPRP | -0.19
120 | RRIRIRPPRLPRPRPRPYEMPRP | -0.00062
121 | RRIRIRPPRLPRPRPRPYERPRP | -0.023
122 | RRIRIRPPRLPRPRPRPYETPRP | -0.0282
123 | RRIRIRPPRLPRPRPRPYFEPRP | -1.2
124 | RRIRIRPPRLPRPRPRPYFKPRP | -0.511
125 | RRIRIRPPRLPRPRPRPYFNPRP | -1.29

Row | Sequence | shrunken log2 fold change
126 | RRIRIRPPRLPRPRPRPYGSPRP | -0.126
127 | RRIRIRPPRLPRPRPRPYICPRP | -0.393
128 | RRIRIRPPRLPRPRPRPYIKPRP | -0.684
129 | RRIRIRPPRLPRPRPRPYLVPRP | -0.289
130 | RRIRIRPPRLPRPRPRPYMGPRP | -0.579
131 | RRIRIRPPRLPRPRPRPYMNPRP | -0.712
132 | RRIRIRPPRLPRPRPRPYNFPRP | -0.99
133 | RRIRIRPPRLPRPRPRPYPAPRP | -0.331
134 | RRIRIRPPRLPRPRPRPYPEPRP | -0.0522
135 | RRIRIRPPRLPRPRPRPYRIPRP | -0.485
136 | RRIRIRPPRLPRPRPRPYSGPRP | 0.00727
137 | RRIRIRPPRLPRPRPRPYSQPRP | -0.269
138 | RRIRIRPPRLPRPRPRPYSVPRP | -0.07
139 | RRIRIRPPRLPRPRPRPYVSPRP | -0.518
140 | RRIRIRPPRLPRPRPRPYWQPRP | -0.774
141 | RRIRIRPPRLPRPRPRPYYHPRP | -0.839
142 | RRIRKRPPRLPRPRPRPAAIPRP | 0.255
143 | RRIRKRPPRLPRPRPRPACAPRP | 1
144 | RRIRKRPPRLPRPRPRPACCPRP | 0.192
145 | RRIRKRPPRLPRPRPRPACKPRP | 0.0609
146 | RRIRKRPPRLPRPRPRPACNPRP | -0.0224
147 | RRIRKRPPRLPRPRPRPAECPRP | 0.33
148 | RRIRKRPPRLPRPRPRPAEPPRP | 0.429
149 | RRIRKRPPRLPRPRPRPAFEPRP | 0.158
150 | RRIRKRPPRLPRPRPRPAGGPRP | 0.435
